The text below walks through data of article PMC7140604.

In assay [1] the target is Ag85 (antigen 85 complex proteins) on the surface of live Mycobacterium abscessus cells (M. abscessus (endogenous in CIP104536T cells)). Description: single-cell force spectroscopy (AFM); single M. abscessus R cell on a polydopamine colloidal probe against Fn coupled to a gold surface; PBS; maximum force 250 pN, contact time 500 ms, approach and retraction 1 um/s.
For assay [2] the target is unchanged. Description: dynamic force spectroscopy (AFM single-molecule force spectroscopy at varied loading rate); Fn tip on live M. abscessus R cells; retraction speeds 0.5, 1, 2.5, 5 and 10 um/s; loading rates 100 to 100,000 pN/s; 13 cells; fit of the Friddle-Noy-de Yoreo model; Kd calculated from Feq and keff (7 pN/nm).
For assay [3] the target is unchanged. Description: single-molecule force spectroscopy (AFM); Fn-functionalized gold-coated AFM tip on live M. abscessus R cells adhered to a hydrophobic Petri dish; PBS; maximum force 250 pN, contact time 500 ms, retraction 1 um/s.

In assay [1], “purified human plasma fibronectin (natural protein)” returned an adhesion force of 77 pN and an adhesion frequency (fraction of adhesive force curves), without peptide of 30%. In assay [2], the dissociation constant (Kd) is 0.095 µM, the equilibrium force (Feq) was 34 pN and the off-rate constant (koff) was 33 s⁻¹. In addition, in assay [3], the adhesion (rupture) force came to 75 pN and the adhesion frequency (fraction of adhesive force curves), without peptide was 30%.

A word on the Kd: it is the concentration at which binding is half-saturated. By koff is commonly meant a measure of how fast the partners let go of each other.
